Reference: the supplement of paper PMC9170038

Legend:
MS2 coat protein [1] = experiment: apparent KD of MS2 coat protein, switch ON state; designed switch direction (-1 OFF switch, 1 ON switch): -1; higher = weaker reporter binding; conditions: FMN input: 0 or 200 uM; Eterna round: R93 (includes R88 designs)
Method in brief: (§1)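 For every design, apparent KD is the median of normalised binding-curve fits from its clusters. The RNA switches were transcribed on-chip from Illumina sequencing clusters and titrated with SNAP-549-labelled MS2 coat protein (twofold steps, 0.7 or 1.5 nM to 3 µM; 0.8–1.5 h to 10–20 min per step). Titrations used 100 mM Tris-HCl pH 7.5, 80 mM KCl, 4 mM MgCl2, without or with constant ligand.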

MS2 coat protein [2] = experiment: apparent KD of MS2 coat protein, switch OFF state (with FMN for OFF switches, without FMN for ON switches); designed switch direction (-1 OFF switch, 1 ON switch): -1; higher = weaker reporter binding; conditions: FMN input: 0 or 200 uM; Eterna round: R93 (includes R88 designs)
Method in brief: as §1

Sequence	apparent KD of MS2 coat protein (MS2 coat protein [1])	apparent KD of MS2 coat protein (MS2 coat protein [2])
ACCAGACAUGAGGAUCACCCAUGUCAGGAUAUCUAGAAAACCUCAUGUAAAAAAAUCUAGAGAAGGGAUAUGGA [Design 94: Pseudoknot D]	40.6 nM	54.7 nM
ACCAGUACAGGAUAUACAUGAGGAUCACCCAUGUGAGAAUUAAGUGGCGUACCACAAAGUAGAAGGGUACUGGA [Mat - Exclusion 3 - JL mod - D11]	43.3 nM	273 nM
ACCCUGCUAGGAUAUACAGCAGGGAUUCGAAAACCCACGAAACAUGAGGAUCACCCAUGUAGAAGGAGUAGGGA [Bimaat]	17.5 nM	16 nM
ACCGAACAUGAGGAUCACCCAUGUGAGGAUAUAGACGCAAAUUAAACGCGUAACAAAACUAGAAGGCACUGGGC [Veais]	27.6 nM	15.3 nM
ACUUAGACAGGAUAUACGUGAGUGGAAAAAGUGUAUCCACUACAUGAGGAUCACCCAUGUAGAAGGGUCUAAGA [Ex2 Design 182: Random 7]	18.6 nM	19.7 nM
AGAAAACAUGAGGAUCACCCAUGUCAGGAUAUCUAAAAGAAAAGAAAAGAAAGAAGAAAGAGAAGGGACAAGAA [Sekhemib-Perenmaat]	22.1 nM	25.5 nM
AGAAAGGCAGGAUAUACAUGAGGAUCACCCAUGUUAAGAGUGACGGAAACGUCACGAAGUAGAAGGGCCAAGAA [The song I sing]	20.4 nM	17.3 nM
AGAGACAGAGGAUAUACAUGAGGAUCACCCAUGUAAGAGAAAGAAAAGGGAAAGAAAAGUAGAAGGCUGAGAGA [Ruby 67]	24.2 nM	28.7 nM
AGCAAACAUGAGGAUCACCCAUGUCAGGAUAUGAACGAAAUAAAAUAAAAAUAAAAGUUCAGAAGGGACGAGCA [Mat - Exclusion 1 - Eli mod - D24]	32.3 nM	43.5 nM
AGCAAGUCAGGAUAUGCGAAGUCAGGACACACACUGACGAAGCAGAAGGGACAUGAGGAUCACCCAUGUAAGCA [JR_Exclusion4_Sub6]	42.5 nM	39.3 nM
AGCAGGUGAGGAUAUCGAUUAAGAUUAACAUUAUUAUUAAACGAGAAGGCACAUGAGGAUCACCCAUGUAAGGA [Exclusion 4Col]	43.4 nM	51.8 nM
AGCUAGUCAGGAUAUACGAACAUGUCAAAAGACGUGAAGGAACAUGAGGAUCACCCAUGUAGAAGGGACUAGCA [Diamond 19]	19.3 nM	16.5 nM
AGCUAGUCAGGAUAUACGAACAUGUCAAAAGACGUGAAGGGACAUGAGGAUCACCCAUGUAGAAGGGACUAGCC [salish99-Ex2-17]	33.2 nM	145 nM
AGCUAGUCAGGAUAUACGAACAUGUCGAGAGACGUGAAGGGACAUGAGGAUCACCCAUGUAGAAGGGACUAGCA [Mat - Exclusion 2 - JL mod - D2]	35.5 nM	170 nM
AGCUAGUCAGGAUAUACGAACAUGUCGCCAGAUGUGAAGGGACAUGAGGAUCACCCAUGUAGAAGGGACUAGCA [salish99-Ex2-23]	254 nM	198 nM
AGCUAGUCAGGAUAUACGAACAUGUCGGAAGACGUGAAGGGACAUGAGGAUCACCCAUGUAGAAGGGACUAGCA [Mat - Exclusion 2 - JL mod - D3]	33.1 nM	136 nM
AGCUAGUCAGGAUAUACGAACAUGUCGGUGGACGUGAAGGGACAUGAGGAUCACCCAUGUAGAAGGGACUAGCA [salish99-Ex2-21]	41.3 nM	91.5 nM
AGCUAGUCAGGAUAUACGAGCAUGUCAAAAGACGUGAAGGGACAUGAGGAUCACCCAUGUAGAAGGGACUAGCA [Diamond 22]	40.3 nM	122 nM
AGCUAGUCAGGAUAUGCAUGAAAAAAAAAAAAAAAAAAAAAACAUGAGGAUCACCCAUGUAGAAGGGACUAGCA [Starry Exclusion 2 (jandersonlee round 1 mod)]	126 nM	212 nM
AGCUAGUGAGGAUAUACGAACAAGUAAAAGGACUGUAAGGGACAUGAGGAUCACCCAUGUAGAAGGCACUAGCA [Diamond 60]	29.6 nM	92.7 nM
AGGAAACAUGAGGAUCACCCAUGUAAGGAUAUGAACGAAAUAAAAUAAAAAUAAAAGUUCAGAAGGUACGAAAA [Mat - Exclusion 1 - Eli mod - D9]	22.1 nM	40.3 nM
AGGAAACAUGAGGAUCACCCAUGUCAGGAUAUUCAAAAGAAAAGAAAAGAAAGAAGAAGAAGAAGGGACAAGAA [Wazner]	36.7 nM	44.5 nM
AGGAAGUGAGGAUAUGCAGCAUAUAGUGGACGCUAUAGCAUGUAGAAGGCACAUGAGGAUCACCCAUGUUUAAA [EX4 Malc#38]	30.8 nM	34.9 nM
